Assay [1] addresses T1, LILRB2-Fc protein (human, UniProt Q8N423 22-460, limits assumed).
T1 construct: also called human LILRB2-Fc; not shown: Fc part
Put plainly: blocking ELISA, LILRB2-Fc binding to coated monomer HLA-G; Exp I. Here is the method:
(§1) Tumor-associated HLA-G is an HLA Class I ligand for LILRB2. Binding of HLA-G to LILRB2 induces an immune suppressive signal in LILRB2 expressing myeloid cells. To determine if the anti-LILRB2 antibodies block the HLA-G-LILRB2 interaction and prevent the induction of an inhibitory signal, blocking ELISA assays in a dose titration were performed. 384-well plates were coated with monomer HLA-G (Fred Hutchinson Cancer Research Center, No. bHLA-G) at a concentration of 5 μg/mL, diluted in PBS, then plates were incubated at RT for 1 hour. Plates were rinsed with Wash Buffer three times, then blocked with Blocking Buffer A for 30 minutes at RT. During blocking incubation step, LILRB2-Fc protein and antibody titrations were prepared in Blocking Buffer A. LILRB2-Fc protein was then incubated with antibody titrations for 30 minutes at RT to allow for binding prior to addition onto plate. Plates were rinsed three times with Wash Buffer, then 25 μL of protein/antibody mixture was added per well and incubated for 1 hour at RT. Following antibody incubation, plates were washed three times with Wash Buffer. Anti-human IgG Fc-HRP secondary antibody was diluted and added at 25 μL/well. Plates were incubated in the dark for 1 hour at RT. Following secondary antibody incubation, plates were washed four times with Wash Buffer. 25 μL/well ultra-neat TMB was added per well for development and incubated for 5 minutes at RT. Reaction was stopped using 0.3 M HCl (25 μL/well). Absorbance was read at 450 nm using the Envision. The IC₅₀ for HLA-G blocking by clone B2A-IgG4 was 0.066 μg/mL.
(§2) Select humanized IgG4 variant antibodies were tested for their ability to block binding of human LILRB2-Fc to monomer HLA-G by ELISA, using the method described in Example 7.

The target in assay [2] is T2, Recombinant human LILRB2 protein (ELISA antigen) (human, UniProt Q8N423 22-460).
T2 construct: also called LILRB2-His; recombinant LILRB2
Put plainly: ELISA, plate-coated recombinant human LILRB2. Here is the method: (§3) To confirm binding to human and cynomolgus LILRB2, antibodies in supernatants were evaluated for binding by enzyme-linked immunosorbent assay (ELISA). Recombinant LILRB2 proteins (human: SEQ ID NO: 48; cynomolgus) were diluted in PBS to 2 μg/mL and added to 384-well high-binding ELISA plates (Greiner Bio-One Microlon™) at 25 μL/well and incubated at 4° C. overnight. The plates were washed three times with Wash Buffer (0.05% Tween® 20 in PBS), using a microplate washer and then blocked with 90 μL/well of ELISA Blocking Buffer A (1% BSA in PBS) for 1 hour at room temperature (RT). After blocking, 25 μL/well of LILRB2 antibodies or isotype control were added to the plates and incubated for 1 hour at RT. After primary antibody binding, plates were washed three times with Wash Buffer using a microplate washer. Secondary detection antibody (HRP-goat anti-rabbit Fab fragment) was diluted to 1:3000 in assay diluent (1% BSA in PBS) and 25 μL/well was added to plates and incubated at RT protected from light for 1 hour. Following incubation, plates were washed four times with Wash Buffer, using a microplate washer. After removal of the final wash, 25 μL/well of 1-Step™ Ultra TMB-ELISA Substrate Solution (Thermo Fisher, No. 34028) was added and plates were incubated for 5-10 min at RT, protected from light. After development, the reaction was stopped by addition of 25 μL/well of 0.3 M HCl, and plates were read using an EnVision (Perkin Elmer) microplate reader at 450 nm. EC₅₀ values were calculated based on log concentration of the primary antibodies at optical density at 450 nm.
(§4) Select humanized variant antibodies were purified and tested for their ability to bind human LILRB2 by ELISA, using the method described in Example 2, and binding to HEK293T cells expressing human LILRB2, using the method described in Example 4. Representative data are shown for IgG4 variants in Table 6.

In assay [3] the target is T3, Human LILRB2 on stably transduced HEK293T cells (human, UniProt Q8N423 22-597).
T3 construct: Lentiviral transduction (G&P Biosciences LTV2992); also called HEK293T-LILRB2; LILRB2-expressing HEK293T cells
Put plainly: flow cytometry, HEK293T cells stably expressing human LILRB2. Here is the method: To confirm binding of LILRB2 antibodies, flow cytometry binding assays were performed using HEK293T cells stably expressing human LILRB2 (Example 3). […] The B2A-IgG1 and B2A-IgG4 chimeras bound the LILRB2-expressing HEK293T cells, with equivalent EC₅₀ values of 0.21 nM and 0.30 nM respectively.
as §4

Assay [4] deals with T1, LILRB2-Fc protein. Put plainly: blocking ELISA, LILRB2-Fc binding to coated monomer HLA-G; Exp II. The method, then:
as §1, §2

The target of assay [5] is T2, Recombinant human LILRB2 protein (ELISA …). Kind of assay: ELISA, immobilized LILRB2-His; conditioned media of transient transfections. The method, then: as §3
Twenty-five IgG4 variants were expressed in mammalian cell culture as a combinatorial library of the five light and five heavy chains. In addition, B2A-IgG4 was included as a transfection control. The conditioned media from these transient transfections were assayed for human IgG concentration. A plate-based ELISA (see Example 2) was performed in which LILRB2-His was immobilized, and binding of humanized mAb variants was detected via an anti-human IgG4 HRP-labeled secondary antibody. The parental rabbit/human chimera clone transfection served as the benchmark EC₅₀ positive control.

T2 sequence (Q8N423 other isoform, or with tags, fused parts or gaps limits assumed): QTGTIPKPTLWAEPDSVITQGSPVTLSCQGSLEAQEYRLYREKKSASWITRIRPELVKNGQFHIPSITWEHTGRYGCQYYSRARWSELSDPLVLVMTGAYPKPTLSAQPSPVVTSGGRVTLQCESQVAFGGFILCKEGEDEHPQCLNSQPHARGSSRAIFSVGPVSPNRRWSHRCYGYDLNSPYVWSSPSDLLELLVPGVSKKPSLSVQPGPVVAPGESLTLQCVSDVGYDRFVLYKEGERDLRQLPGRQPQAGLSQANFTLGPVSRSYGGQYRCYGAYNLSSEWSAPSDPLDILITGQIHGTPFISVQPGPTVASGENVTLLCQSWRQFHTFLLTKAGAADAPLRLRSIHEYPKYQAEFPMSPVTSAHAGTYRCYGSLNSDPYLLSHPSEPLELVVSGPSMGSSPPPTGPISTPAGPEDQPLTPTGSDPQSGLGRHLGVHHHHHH
T1 sequence (Q8N423 22-460 limits assumed): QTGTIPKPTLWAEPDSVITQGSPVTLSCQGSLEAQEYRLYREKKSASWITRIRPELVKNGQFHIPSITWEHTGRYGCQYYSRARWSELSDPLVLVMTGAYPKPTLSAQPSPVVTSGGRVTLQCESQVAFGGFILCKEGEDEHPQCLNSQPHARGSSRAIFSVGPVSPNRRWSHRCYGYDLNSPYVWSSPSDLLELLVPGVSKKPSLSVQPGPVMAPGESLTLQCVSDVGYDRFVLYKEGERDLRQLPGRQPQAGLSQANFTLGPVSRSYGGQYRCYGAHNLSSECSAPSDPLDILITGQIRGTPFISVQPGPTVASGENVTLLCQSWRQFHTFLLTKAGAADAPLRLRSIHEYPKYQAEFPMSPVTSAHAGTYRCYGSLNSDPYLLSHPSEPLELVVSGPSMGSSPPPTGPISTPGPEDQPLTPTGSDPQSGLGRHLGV
T3 sequence (Q8N423 other isoform, or with tags, fused parts or gaps limits assumed): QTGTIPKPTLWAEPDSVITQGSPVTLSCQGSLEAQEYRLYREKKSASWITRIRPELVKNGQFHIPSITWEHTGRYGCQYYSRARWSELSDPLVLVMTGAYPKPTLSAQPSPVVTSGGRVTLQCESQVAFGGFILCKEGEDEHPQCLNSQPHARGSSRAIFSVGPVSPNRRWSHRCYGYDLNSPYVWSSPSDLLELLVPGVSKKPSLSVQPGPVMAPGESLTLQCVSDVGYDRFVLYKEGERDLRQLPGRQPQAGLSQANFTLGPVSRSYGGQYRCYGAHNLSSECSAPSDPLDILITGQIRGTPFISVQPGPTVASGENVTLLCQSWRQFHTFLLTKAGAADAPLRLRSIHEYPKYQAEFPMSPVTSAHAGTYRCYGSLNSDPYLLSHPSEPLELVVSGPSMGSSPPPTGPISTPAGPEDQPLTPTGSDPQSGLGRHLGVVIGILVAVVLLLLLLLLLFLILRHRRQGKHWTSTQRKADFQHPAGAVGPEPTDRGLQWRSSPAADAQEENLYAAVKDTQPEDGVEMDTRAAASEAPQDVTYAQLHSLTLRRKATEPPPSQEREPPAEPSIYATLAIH

B1: B2H4-51 (antibody, V domains shown)
VH: EVQLLESGGGLVQPGTSLTLSCAASGFSLSTYAMSWVRQAPGKGLEWIGWIYNDGSTYYAAWAKGRFTISKDTSKTTLYLQITSLRAEDTATYFCAREGDYIGYFNIWGQGTLVTVSS
VL: DIQMTQSPSSLSASVGDRVTITCQASQSIGSNLAWYQLKPGQRPKLLIYAAATLASGVPSRFKGSGSGTDFTLTISSLQSEDAATYYCQSYVSGSSDVAFGGGTEVVVK
notes: Humanized variant, human IgG4 / kappa
As for B1, the values for the IC50 with LILRB2-Fc protein [1] and in the assay with LILRB2-Fc protein [4] were 8110 ng/mL and 9050 ng/mL, respectively. Moreover, the 50% effective concentration (EC50) is 3.27 ng/mL in assay [2], 0.37 ng/mL in assay [3] and 3.85 ng/mL in assay [5]. Besides, the “BMAX [gMFI]” value in assay [3] was 10700 gMFI.

B2: B2H4-13 (antibody, V domains shown)
VH: QVQLEESGGRVVQPGRSLRLSCAASGFSLSTYAMSWVRQAPGKGLEWIGWIYNDGSTYYAAWAKGRFTISKDTSKTTVFLQMNSLKPDDTATYFCAREGDYIGYFNIWGQGTLVTVSS
VL: DIEMTQSPSSVSASVGDRVTLTCQASQSIGSNLAWYQQKPGQAPKLLIYAAATLASGVPSRFKGSGSGTDFTLTISSLQPEDFATYYCQSYVSGSSDVAFGGGTEVVVK
notes: as for B1
Consider B2, for which the results for the IC50 with LILRB2-Fc protein [1] and with LILRB2-Fc protein [4] were 5850 ng/mL and 5970 ng/mL, respectively. Moreover, the half-maximal effective concentration (EC50) worked out at 3.55 ng/mL in assay [2], 0.31 ng/mL in assay [3] and 4.5 ng/mL in assay [5]. Besides, the “BMAX [gMFI]” value in assay [3] stood at 9950 gMFI.

B3: B2H4-35 (antibody, V domains shown)
VH: QVQLVESGGRVVQPGTPLRLSCAASGFSLSTYAMSWVRQAPGKGLEWVAWIYNDGSTYYAAWAKGRFTISRDTSKNTLYLQTNSLKPDDTAVYYCAREGDYIGYFNIWGQGTLVTVSS
VL: DVVMTQTPSSVSAALGGTVTIKCQASQSIGSNLAWYQLKPGQRPKLLIYAAATLASGGSSRFKGSGSGTDFTLTISSLEPADAATYYCQSYVSGSSDVAFGGGTEVVVK
notes: as for B1
Regarding B3, the IC50 with LILRB2-Fc protein [1] amounted to 5160 ng/mL; with LILRB2-Fc protein [4] it was 5140 ng/mL. Also, the concentration for a half-maximal effect (EC50) in assay [2] was found to be 2.75 ng/mL; in assay [3], 0.21 ng/mL; in assay [5], 4.67 ng/mL. Moreover, the “BMAX [gMFI]” value in assay [3] was 9990 gMFI.

These data come from patent US20240132589A1 (ONCORESPONSE, published 2024).
